According to patent US20210309747A1:

Biological target: human PD-L1 on Raji cells (human) (UniProt Q9NZQ7)
Assay: flow cytometry blocking assay on Raji-PDL1 cells; blocked ligand: biotinylated Avi- and His-tag human PD1 protein at 3 ug/mL, Streptavidin-PE, MFI; isotype control, the fitted curve falls only from MFI about 320 to about 240

human PD-L1 on Raji cells (human), sequence (Q9NZQ7 19-290): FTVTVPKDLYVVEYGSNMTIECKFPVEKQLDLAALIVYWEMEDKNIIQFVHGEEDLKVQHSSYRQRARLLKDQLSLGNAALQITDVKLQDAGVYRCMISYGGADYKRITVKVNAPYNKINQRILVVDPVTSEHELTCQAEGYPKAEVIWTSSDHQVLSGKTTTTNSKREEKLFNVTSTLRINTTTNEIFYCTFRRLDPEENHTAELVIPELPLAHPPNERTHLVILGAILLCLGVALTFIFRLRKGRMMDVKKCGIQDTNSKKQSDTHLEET

EC50: 0.45 nM
Substance: IgG (antibody)
